The nature of this data set: yeast display, Sf9 membrane polyspecificity reagent, FACS + sequencing; frameworks hold sequencing errors. The method in brief: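 A synthetic nanobody library was expressed on Saccharomyces cerevisiae BJ5465 by galactose induction for 36–48 hours. The library was stained for 1 hour at 4 °C with 10% biotinylated, detergent-solubilized Sf9 membrane reagent and enriched with streptavidin microbeads before FACS. Low and high (top ~1%) gates were set on anti-HA fluorescence for expression and streptavidin fluorescence for reagent binding, and each polyreactivity label reflects the gate of origin.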
In the case of “QVQLVESGGGLVQAGGSLRLSCAASGSTFSKYAMGWYRQAPGKERELVATISSTGSTNYADSVKGRFTISRDNAKNTVYLQMNSLKPEDTAVSYCNAGRRGRPYYKYYYWGQGTQVTVSS”, the “polyreactivity (PSR sort gate)” value was “high polyreactivity”.

With “QVQLVESGGGLVQAGGSLRLSCAASGSTFSLYAMGWSRQAPGKERELVAAISRSGGRTYYADSVKGRFTISRDNAKNTVYLQMNSLKPEDTAVYYCAADSTSGYYWGQGTQVTVSS”, the “polyreactivity (PSR sort gate)” value is “high polyreactivity”.

For “QVQLVESGGGLVQAGGSLRLSCAASGSTFSLYAMGWYRQAPGKERELVAAISQSGSRTYYADSVKGRFTISRDNAKNTVYLQMNSLKPEDTAVYYCAAYSPQTYLRWTYGYWGQGTQVTVSS”, the “polyreactivity (PSR sort gate)” value is listed as “high polyreactivity”.

Turning to “QVQLVESGGGLVQAGGSLRLSCAASGSTFSLYAMGWYRQATGKERELVASIRGRGGSTNYADSVKGRFTISRDNAKNTVYLQMNSLKPEDTAVYYCAAAVGSVRYDYWGQGTQVTVSS”, the “polyreactivity (PSR sort gate)” value is “high polyreactivity”.

“QVQLVESGGGLVQAGGSLRLSCAASGSTFSLYDMGWYRQAPGKERELVAAISSSGGGTYYADSVKGRFTISRDNAKKTVYLQMNSLKPEDTAVYYCAARFYYYPTKYDSWGQGTQVTVSS”: the “polyreactivity (PSR sort gate)” value is given as “high polyreactivity”.

In the case of “QVQLVESGGGLVQAGGSLRLSCAASGSTFSLYTMGWYRQAPGKERELVAAITNGGSTKYADSVKGRFTISRDNAKNTVYLQMNSLKPEDTAVYYCAALYTHYYWIEYDYWGQGTQVTVSS”, the “polyreactivity (PSR sort gate)” value is reported as “low polyreactivity”.

In the case of “QVQLVESGGGLVQAGGSLRLSCAASGSTFSNAMGWYREAPGKERELVAAITNRGGSTYYADSVKGRFTISRDNAKNTVYLQMNSLKPEDTAVYYCAAAGIPESWYQERDYWGQGTQVTVSS”, the “polyreactivity (PSR sort gate)” value is “low polyreactivity”.

For the sequence “QVQLVESGGGLVQAGGSLRLSCAASGSTFSPYALGWYRQAPGKERELVAGITSSGGDTYYADSVKGRFTISRDNAKNTVYLQMNSLKPEDTAVYYCAADWWVLGQLWFDYWGQGTQVTVSS”, the “polyreactivity (PSR sort gate)” value is given as “low polyreactivity”.

As for “QVQLVESGGGLVQAGGSLRLSCAASGSTFSPYAMGWYIQAPGKERELVAAIRVRVGGNTYYADSVKGRFTISRDNAKNTVYLQMNSLKPEDTAVYYCAAYSRTLYPDRYYWGQGTQVTVSS”, the “polyreactivity (PSR sort gate)” value is “high polyreactivity”.

As to “QVQLVESGGGLVQAGGSLRLSCAASGSTFSPYAMGWYRQAPGKDRELVAAISYDGASTYYADSVKGRFTISRDNAKNTVYLQMISLKPEDTAVYYCAADYFRSYEGTYWVVASYYYWGQGTQVTVSS”, the “polyreactivity (PSR sort gate)” value was “low polyreactivity”.

Regarding “QVQLVESGGGLVQAGGSLRLSCAASGSTFSQYAMGWYRPAPGKERELVAAINYIGGSTYYADSVKGRFTISRDNAKNTVYLQMNSLKPEDTAVYYCAVQRWKSSVSFGYWGQGTQVTVSS”, the “polyreactivity (PSR sort gate)” value is listed as “low polyreactivity”.

With “QVQLVESGGGLVQAGGSLRLSCAASGSTFSQYAMGWYRQAPGKERELVAAITTSDGSTNYADSVKGRFTISRDNAKNTVYLQMNSLKPEDTAVYYCNTEYFYYSFGYWGQGTQVTVSS”, the “polyreactivity (PSR sort gate)” value was “low polyreactivity”.

Turning to “QVQLVESGGGLVQAGGSLRLSCAASGSTFSRNAMGWSRQAPGKERELVAAISYRGGSTYYADSVKGRFTISRDNAKNTVYLQMNSLKPEDTAVYYCNADVGWRAPDYGGYDYWGQGTQVTVSS”, the “polyreactivity (PSR sort gate)” value is recorded as “high polyreactivity”.

Turning to “QVQLVESGGGLVQAGGSLRLSCAASGSTFSRNAMGWYRQAPGKERELVAAISWRGGRTYYADSVKGRFTISRDNAKNTVYLQMNRLKPEDTAVYYCAAEHKYRYDYWGQGTQVTVSS”, the “polyreactivity (PSR sort gate)” value is on record as “low polyreactivity”.

Regarding “QVQLVESGGGLVQAGGSLRLSCAASGSTFSRNTMGWYRQAPGKERELVAAITRSGDSTYYADSVKGRFTISRDNAKKTVYLQMNSLKPEDTAVYYCAARRAYLNYYYWGQGTQVTVSS”, the “polyreactivity (PSR sort gate)” value is “high polyreactivity”.

As for “QVQLVESGGGLVQAGGSLRLSCAASGSTFSRYAMGWYRPAPGKERELVAAITRSGGGTHYADSVKGRFTISRDNAKNTVYLQMNSLKPEETAVYYCAKRQSGYRYDYWGQGTEVTVSS”, the “polyreactivity (PSR sort gate)” value is listed as “low polyreactivity”.

Regarding “QVQLVESGGGLVQAGGSLRLSCAASGSTFSRYAMGWYRQAPGKERELVAAISRRAGSTYYADSVKGRFTISRDNAKNTVYLQMNSLKPEDTAVYYCAARTWTENRDGDYWGQGTQVTVSS”, the “polyreactivity (PSR sort gate)” value is “high polyreactivity”.

Turning to “QVQLVESGGGLVQAGGSLRLSCAASGSTFSRYAMGWYRQAPGKERELVAAISSRGGSTYYADSVKGRFTISRDNAKNTVYLQMNSLKPEDTAVYYCAARPYYYIVRGTEYDYWGQGTQVTVSS”, the “polyreactivity (PSR sort gate)” value is given as “high polyreactivity”.

On to “QVQLVESGGGLVQAGGSLRLSCAASGSTFSRYAMGWYRQAPGKERELVAAISWSGGRTNYADSVKGRFTISRDNAKNTVYLQMNSLKPEDTAVYYCNAPFRHRYRVDYWGQGTQVTVSS”, for which the “polyreactivity (PSR sort gate)” value was “high polyreactivity”.

As to “QVQLVESGGGLVQAGGSLRLSCAASGSTFSRYAMGWYRQAPGKERELVAAISYSGDSTYYADSVKGRFTISRDNAKNTVYLQMNSLKPEDTAVYYCNVYSHYRGYYWGQGTQVTVSS”, the “polyreactivity (PSR sort gate)” value was “high polyreactivity”.

In the case of “QVQLVESGGGLVQAGGSLRLSCAASGSTFSRYTMGRYRQAPGKERELVAAIRRSGASTYYADSVKGRFTISRDNAKNTVYLQMNSLKPEDTAVYYFAVGRYRYGYWGQGTQVTVSS”, the “polyreactivity (PSR sort gate)” value is “high polyreactivity”.

Turning to “QVQLVESGGGLVQAGGSLRLSCAASGSTFSRYTMGWYRQAPGKERELVAAISKSGGSTYYADSVKGRFTISRDNAKNTVYLQMNSLKPEDTAVYYCAALVRAGTSLDYDYWGQGTQVTVSS”, the “polyreactivity (PSR sort gate)” value is reported as “high polyreactivity”.

Take “QVQLVESGGGLVQAGGSLRLSCAASGSTFSSNAMGWYRQAPGKERELVAAINRTGNTYYADSVKGRFTISRDNAKNTVYLQMNSLKPEDTAVYYRNTVLNLYRGGGYWGQGTQVTVSS”: the “polyreactivity (PSR sort gate)” value is “low polyreactivity”.

Consider “QVQLVESGGGLVQAGGSLRLSCAASGSTFSSNAMGWYRQAPGNERELVAAISKRGGRTYYADSVKGRFTISRDNAKNTVYLQMNSLKPEDTAVYYCAKDYSSAVDYWGQGTQVTVSS”, for which the “polyreactivity (PSR sort gate)” value is “high polyreactivity”.

Take “QVQLVESGGGLVQAGGSLRLSCAASGSTFSSYAMGWYRQAPGKERELVAAITYSGGSTYYADSVKGRFTISRDNAKNTVYLQMNSLKPEDTAVYYCATRSLFWSFTYYYWGQGTQVTVSS”: the “polyreactivity (PSR sort gate)” value was “low polyreactivity”.

For “QVQLVESGGGLVQAGGSLRLSCAASGSTFSSYAMGWYRQAPGKERELVARITSGDSTYYADSVKGRFTISRDNAKNTVYLQMNSLKPEDTAVYYCNAVAYGRTYDYWGQGTQVTVSS”, the “polyreactivity (PSR sort gate)” value is given as “high polyreactivity”.

In the case of “QVQLVESGGGLVQAGGSLRLSCAASGSTFSSYVMGWYRQAPGKERELVAGITRGGRTYYADSVKGRFTISRDNAKNTVYLQMNSLKPEDTAVYYCNARDGVTTEFDYWGQGTQVTVSS”, the “polyreactivity (PSR sort gate)” value was “low polyreactivity”.

Turning to “QVQLVESGGGLVQAGGSLRLSCAASGSTFSTYAMGWYRQAPGKERELVAAIRWSGGSTYYADSVKGRFTISRDNAKNTVYLQMNSLKPEDTAVYYCAKGIRRWYGGSDYWGQGTQVTVSS”, the “polyreactivity (PSR sort gate)” value is on record as “low polyreactivity”.

As to “QVQLVESGGGLVQAGGSLRLSCAASGSTFSTYAMGWYRQAPGKERELVAVITWRGGSTYYADSVKGRFTISRDNAKNTVYLQMNSLKPEDTAVYYCAAEGESPEYDYWGQGTQVTVSS”, the “polyreactivity (PSR sort gate)” value is “low polyreactivity”.

Turning to “QVQLVESGGGLVQAGGSLRLSCAASGSTFSTYAMGWYRQAPGTERELVAASRWSGGSTYYADSVKGRFTISRDNAKNTVYLQMNSLKPEDTAVYYCAKGIRRWYGGSDYWGQGTQVTVSS”, the “polyreactivity (PSR sort gate)” value is reported as “low polyreactivity”.

For “QVQLVESGGGLVQAGGSLRLSCAASGSTFSVNAMGWYRQAPGKERELVAAITYSGGSTYYADSVKGRFTISRDNAKNTVYLQMNSLKPEDTAVYYCAAEARYWIYEYDYWGQGTQVTVSS”, the “polyreactivity (PSR sort gate)” value was “high polyreactivity”.

Take “QVQLVESGGGLVQAGGSLRLSCAASGSTFSVNPMGWYRQARVKERELVAAIDSGDSTYYADSVKGRFTISRDNAKNTVYLQMNSLKPEDTAVYYCATDVTFVYDLGYFQYDYWGQGTQVTVSS”: the “polyreactivity (PSR sort gate)” value is “low polyreactivity”.

As to “QVQLVESGGGLVQAGGSLRLSCAASGSTFSVYAMGWYRQAPGKERELVAAISSGGTTNYADSVKGRFTISRDNAKNTVYLQMNSLKPEDTAVYYCAAEYDHYPYDYYWGQGTQVTVSS”, the “polyreactivity (PSR sort gate)” value is recorded as “low polyreactivity”.

Regarding “QVQLVESGGGLVQAGGSLRLSCAASGSTFSYFAMGWYRQAPGKERELVAAISWNGGSTYYADSVKGRFTISRDNAKNTVYLQMNSLKPEDTAVYYCAAHPAYRDSWGEYDYWGQGTQVTVSS”, the “polyreactivity (PSR sort gate)” value is on record as “low polyreactivity”.

In the case of “QVQLVESGGGLVQAGGSLRLSCAASGSTFSYNAMGWYRQAPRKERELVAAISNTGSTYYADSVKGRFTISRDNAKNTVYLQMYSVKPEDSAVYYCAALWVHKRRQNSAHYDSWGQGTQVTVSS”, the “polyreactivity (PSR sort gate)” value was “low polyreactivity”.

Consider “QVQLVESGGGLVQAGGSLRLSCAASGSTFSYNAMGWYRQAPWKERELVAAISWNGDSTYADSVKGRFTISRDNAKNTVYLQMNSLKPEDTAVYYCAKDTIITPGRRKSPRYRHGYWGQGTQVTVSS”, for which the “polyreactivity (PSR sort gate)” value is listed as “low polyreactivity”.

Consider “QVQLVESGGGLVQAGGSLRLSCAASGSTFSYNAMGWYRRAPGKERELVAAISWNGDSTYADSVKGRFTISRDNAKNTVYLQMNSLKPEDTAVYYCAKETIITPGRRKSPRYLHGYWGQGTQVTVSS”, for which the “polyreactivity (PSR sort gate)” value is given as “low polyreactivity”.

With “QVQLVESGGGLVQAGGSLRLSCAASGSTFSYYAMGSYRQAPGKERELVADISWSGGSTYYADSVKGRFTISRDNAKNTVYLQMNSLKPEDTAVYYCAARGYVRWYNRYDYWGQGTQVTVSS”, the “polyreactivity (PSR sort gate)” value was “low polyreactivity”.

For “QVQLVESGGGLVQAGGSLRLSCAASGSTFSYYAMGWYRQAPGKERELVAAISRSGGSTYYADSVKGRFTISRDNAKNTVYFQMNSMKPEDTAVYYCADRGQYRYSFGDYSWGQGTQVTVSS”, the “polyreactivity (PSR sort gate)” value is “high polyreactivity”.

In the case of “QVQLVESGGGLVQAGGSLRLSCAASGSTFSYYAMGWYRQAPGKERELVAAITSSGGSTYYADSVKGRFTISRDNAKNTVYLQMNSLKPEDTAVYYCNTAYHVPYDYWGQGTQVTVSS”, the “polyreactivity (PSR sort gate)” value is recorded as “low polyreactivity”.

Consider “QVQLVESGGGLVQAGGSLRLSCAASGSTFSYYAMGWYRQAPGKESELVAAISRTAVSTYYADSVKGRFTISRDNAKNTVYLQMYSLKPEDTAVYYCAASHYHGYSLGYDYWGQGTQVTVSS”, for which the “polyreactivity (PSR sort gate)” value was “high polyreactivity”.

(Values after the nanobody polyreactivity screen of Harvey et al. (2022).)
